Results from patent US20260151504A1, “SYNTHETIC CELLS COMPRISING TNF-RELATED APOPTOSIS-INDUCING LIGAND (TRAIL) AND METHODS OF USING THE SAME” (Slingshot Biosciences, Inc., priority 2023, published 2026).

Assays:
[1] = biological target: TRAIL receptors DR4 and/or DR5; experiment: cell-based or functional assay
streptavidin [2] = biological target: streptavidin (UniProt P22629); experiment: flow cytometry, antibody staining of STV porous hydrogel microspheres, BD Quantibrite PE standard curve
streptavidin [3] = biological target: streptavidin (UniProt P22629); experiment: flow cytometry, antibody staining of STV magnetic beads, BD Quantibrite PE standard curve
streptavidin [4] = biological target: streptavidin (UniProt P22629); experiment: flow cytometry, antibody staining of STV smooth hydrogel microspheres, BD Quantibrite PE standard curve

Chain of streptavidin (P22629 37-163 limits assumed): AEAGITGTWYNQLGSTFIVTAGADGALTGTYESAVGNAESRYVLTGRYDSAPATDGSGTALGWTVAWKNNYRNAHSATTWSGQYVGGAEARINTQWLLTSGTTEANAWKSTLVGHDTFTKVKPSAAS

Biotinylated Fc-TRAIL: active fragment of the human TRAIL protein comprising SEQ ID NO: 2 with a mouse IgG2a-Fc Tag at the N-terminus (ACROBiosystems TRLH52591MG), biotinylated with Oyo-link single biotin (from UniProt P50591 114-281) (Fc fusion)
Early Stage Apoptotic (7-AAD-/Annexin V+), Jeko-1, 24 Hrs.; TRAIL Magnetic Beads [1]: 25.8%
Early Stage Apoptotic (7-AAD-/Annexin V+), Jeko-1, 24 Hrs.; TRAIL Porous Hydrogels [1]: 52.1%
Early Stage Apoptotic (7-AAD-/Annexin V+), Jeko-1, 24 Hrs.; TRAIL Smooth Hydrogels [1]: 44.8%
Early Stage Apoptotic (7-AAD-/Annexin V+), Jeko-1, 24 Hrs.; TRAIL encapsulated PLGA [1]: 3.08%
Early Stage Apoptotic (7-AAD-/Annexin V+), Jeko-1, 48 Hrs.; TRAIL Magnetic Beads [1]: 6.55%
Early Stage Apoptotic (7-AAD-/Annexin V+), Jeko-1, 48 Hrs.; TRAIL Porous Hydrogels [1]: 5.77%
Early Stage Apoptotic (7-AAD-/Annexin V+), Jeko-1, 48 Hrs.; TRAIL Smooth Hydrogels [1]: 11.9%
Early Stage Apoptotic (7-AAD-/Annexin V+), Jeko-1, 48 Hrs.; TRAIL encapsulated PLGA [1]: 3.07%
Early Stage Apoptotic (7-AAD-/Annexin V+), Jurkat, 24 Hrs.; TRAIL Magnetic Beads [1]: 22.3%
Early Stage Apoptotic (7-AAD-/Annexin V+), Jurkat, 24 Hrs.; TRAIL Porous Hydrogels [1]: 41.9%
Early Stage Apoptotic (7-AAD-/Annexin V+), Jurkat, 24 Hrs.; TRAIL Smooth Hydrogels [1]: 39%
Early Stage Apoptotic (7-AAD-/Annexin V+), Jurkat, 24 Hrs.; TRAIL encapsulated PLGA [1]: 7.86%
Early Stage Apoptotic (7-AAD-/Annexin V+), Jurkat, 48 Hrs.; TRAIL Magnetic Beads [1]: 13.8%
Early Stage Apoptotic (7-AAD-/Annexin V+), Jurkat, 48 Hrs.; TRAIL Porous Hydrogels [1]: 22.5%
Early Stage Apoptotic (7-AAD-/Annexin V+), Jurkat, 48 Hrs.; TRAIL Smooth Hydrogels [1]: 18.3%
Early Stage Apoptotic (7-AAD-/Annexin V+), Jurkat, 48 Hrs.; TRAIL encapsulated PLGA [1]: 3.1%
Late Stage Apoptotic (7-AAD+/Annexin V+), Jeko-1, 24 Hrs.; TRAIL Magnetic Beads [1]: 20.1%
Late Stage Apoptotic (7-AAD+/Annexin V+), Jeko-1, 24 Hrs.; TRAIL Porous Hydrogels [1]: 33.9%
Late Stage Apoptotic (7-AAD+/Annexin V+), Jeko-1, 24 Hrs.; TRAIL Smooth Hydrogels [1]: 16.9%
Late Stage Apoptotic (7-AAD+/Annexin V+), Jeko-1, 24 Hrs.; TRAIL encapsulated PLGA [1]: 5.34%
Late Stage Apoptotic (7-AAD+/Annexin V+), Jeko-1, 48 Hrs.; TRAIL Magnetic Beads [1]: 44.1%
Late Stage Apoptotic (7-AAD+/Annexin V+), Jeko-1, 48 Hrs.; TRAIL Porous Hydrogels [1]: 87.5%
Late Stage Apoptotic (7-AAD+/Annexin V+), Jeko-1, 48 Hrs.; TRAIL Smooth Hydrogels [1]: 43.1%
Late Stage Apoptotic (7-AAD+/Annexin V+), Jeko-1, 48 Hrs.; TRAIL encapsulated PLGA [1]: 13.9%
Late Stage Apoptotic (7-AAD+/Annexin V+), Jurkat, 24 Hrs.; TRAIL Magnetic Beads [1]: 14.9%
Late Stage Apoptotic (7-AAD+/Annexin V+), Jurkat, 24 Hrs.; TRAIL Porous Hydrogels [1]: 18.8%
Late Stage Apoptotic (7-AAD+/Annexin V+), Jurkat, 24 Hrs.; TRAIL Smooth Hydrogels [1]: 18%
Late Stage Apoptotic (7-AAD+/Annexin V+), Jurkat, 24 Hrs.; TRAIL encapsulated PLGA [1]: 3.17%
Late Stage Apoptotic (7-AAD+/Annexin V+), Jurkat, 48 Hrs.; TRAIL Magnetic Beads [1]: 32.9%
Late Stage Apoptotic (7-AAD+/Annexin V+), Jurkat, 48 Hrs.; TRAIL Porous Hydrogels [1]: 63.5%
Late Stage Apoptotic (7-AAD+/Annexin V+), Jurkat, 48 Hrs.; TRAIL Smooth Hydrogels [1]: 43%
Late Stage Apoptotic (7-AAD+/Annexin V+), Jurkat, 48 Hrs.; TRAIL encapsulated PLGA [1]: 5.7%
Live Cells (7-AAD-/Annexin V-), Jeko-1, 24 Hrs.; TRAIL Magnetic Beads [1]: 54%
Live Cells (7-AAD-/Annexin V-), Jeko-1, 24 Hrs.; TRAIL Porous Hydrogels [1]: 13.6%
Live Cells (7-AAD-/Annexin V-), Jeko-1, 24 Hrs.; TRAIL Smooth Hydrogels [1]: 38.2%
Live Cells (7-AAD-/Annexin V-), Jeko-1, 24 Hrs.; TRAIL encapsulated PLGA [1]: 91.5%
Live Cells (7-AAD-/Annexin V-), Jeko-1, 48 Hrs.; TRAIL Magnetic Beads [1]: 48.2%
Live Cells (7-AAD-/Annexin V-), Jeko-1, 48 Hrs.; TRAIL Porous Hydrogels [1]: 5.18%
Live Cells (7-AAD-/Annexin V-), Jeko-1, 48 Hrs.; TRAIL Smooth Hydrogels [1]: 44.8%
Live Cells (7-AAD-/Annexin V-), Jeko-1, 48 Hrs.; TRAIL encapsulated PLGA [1]: 82.4%
Live Cells (7-AAD-/Annexin V-), Jurkat, 24 Hrs.; TRAIL Magnetic Beads [1]: 62.5%
Live Cells (7-AAD-/Annexin V-), Jurkat, 24 Hrs.; TRAIL Porous Hydrogels [1]: 39.1%
Live Cells (7-AAD-/Annexin V-), Jurkat, 24 Hrs.; TRAIL Smooth Hydrogels [1]: 42.7%
Live Cells (7-AAD-/Annexin V-), Jurkat, 24 Hrs.; TRAIL encapsulated PLGA [1]: 88.6%
Live Cells (7-AAD-/Annexin V-), Jurkat, 48 Hrs.; TRAIL Magnetic Beads [1]: 49.7%
Live Cells (7-AAD-/Annexin V-), Jurkat, 48 Hrs.; TRAIL Porous Hydrogels [1]: 12%
Live Cells (7-AAD-/Annexin V-), Jurkat, 48 Hrs.; TRAIL Smooth Hydrogels [1]: 36%
Live Cells (7-AAD-/Annexin V-), Jurkat, 48 Hrs.; TRAIL encapsulated PLGA [1]: 85.6%
Necrotic (7-AAD+/Annexin V-), Jeko-1, 24 Hrs.; TRAIL Magnetic Beads [1]: 0.12%
Necrotic (7-AAD+/Annexin V-), Jeko-1, 24 Hrs.; TRAIL Porous Hydrogels [1]: 0.34%
Necrotic (7-AAD+/Annexin V-), Jeko-1, 24 Hrs.; TRAIL Smooth Hydrogels [1]: 0.1%
Necrotic (7-AAD+/Annexin V-), Jeko-1, 24 Hrs.; TRAIL encapsulated PLGA [1]: 0.088%
Necrotic (7-AAD+/Annexin V-), Jeko-1, 48 Hrs.; TRAIL Magnetic Beads [1]: 1.08%
Necrotic (7-AAD+/Annexin V-), Jeko-1, 48 Hrs.; TRAIL Smooth Hydrogels [1]: 0.17%
Necrotic (7-AAD+/Annexin V-), Jeko-1, 48 Hrs.; TRAIL encapsulated PLGA [1]: 0.62%
Necrotic (7-AAD+/Annexin V-), Jurkat, 24 Hrs.; TRAIL Magnetic Beads [1]: 0.28%
Necrotic (7-AAD+/Annexin V-), Jurkat, 24 Hrs.; TRAIL Porous Hydrogels [1]: 0.18%
Necrotic (7-AAD+/Annexin V-), Jurkat, 24 Hrs.; TRAIL Smooth Hydrogels [1]: 0.23%
Necrotic (7-AAD+/Annexin V-), Jurkat, 24 Hrs.; TRAIL encapsulated PLGA [1]: 0.36%
Necrotic (7-AAD+/Annexin V-), Jurkat, 48 Hrs.; TRAIL Magnetic Beads [1]: 3.61%
Necrotic (7-AAD+/Annexin V-), Jurkat, 48 Hrs.; TRAIL Porous Hydrogels [1]: 2.1%
Necrotic (7-AAD+/Annexin V-), Jurkat, 48 Hrs.; TRAIL Smooth Hydrogels [1]: 2.67%
Necrotic (7-AAD+/Annexin V-), Jurkat, 48 Hrs.; TRAIL encapsulated PLGA [1]: 5.61%
percentage of apoptotic cells (Annexin V-positive), Jeko-1, 24 h; TRAIL attached to magnetic beads [1]: 47.1%
percentage of apoptotic cells (Annexin V-positive), Jeko-1, 24 h; TRAIL encapsulated in PLGA microspheres [1]: 9.69%
percentage of apoptotic cells (Annexin V-positive), Jeko-1, 24 h; TRAIL on porous hydrogel microspheres [1]: 86.3%
percentage of apoptotic cells (Annexin V-positive), Jeko-1, 24 h; TRAIL on smooth hydrogel microspheres [1]: 66.3%
percentage of apoptotic cells, Jeko-1, 48 hours; TRAIL attached to magnetic beads [1]: 50.1%
percentage of apoptotic cells, Jeko-1, 48 hours; TRAIL encapsulated in PLGA microspheres [1]: 17.2%
percentage of apoptotic cells, Jeko-1, 48 hours; TRAIL on porous hydrogel microspheres [1]: 93%
percentage of apoptotic cells, Jurkat, 24 h; TRAIL attached to magnetic beads [1]: 39.5%
percentage of apoptotic cells, Jurkat, 24 h; TRAIL encapsulated in PLGA microspheres [1]: 6.45%
percentage of apoptotic cells, Jurkat, 24 h; TRAIL on porous hydrogel microspheres [1]: 78%
percentage of apoptotic cells, Jurkat, 48 h; TRAIL attached to magnetic beads [1]: 57.2%
percentage of apoptotic cells, Jurkat, 48 h; TRAIL encapsulated in PLGA microspheres [1]: 7.87%
percentage of apoptotic cells, Jurkat, 48 h; TRAIL on porous hydrogel microspheres [1]: 81.4%
percentage of early apoptotic cells, Jeko-1, 24 h; TRAIL on porous hydrogel microspheres (text value; Table 4A prints 52.1) [1]: 52.3%

soluble TRAIL protein (ligand)
Early Stage Apoptotic (7-AAD-/Annexin V+), Jeko-1, 24 Hrs.; Soluble TRAIL [1]: 35.8%
Early Stage Apoptotic (7-AAD-/Annexin V+), Jeko-1, 48 Hrs.; Soluble TRAIL [1]: 9.88%
Early Stage Apoptotic (7-AAD-/Annexin V+), Jurkat, 24 Hrs.; Soluble TRAIL [1]: 51.1%
Early Stage Apoptotic (7-AAD-/Annexin V+), Jurkat, 48 Hrs.; Soluble TRAIL [1]: 20.4%
Late Stage Apoptotic (7-AAD+/Annexin V+), Jeko-1, 24 Hrs.; Soluble TRAIL [1]: 26.4%
Late Stage Apoptotic (7-AAD+/Annexin V+), Jeko-1, 48 Hrs.; Soluble TRAIL [1]: 59.7%
Late Stage Apoptotic (7-AAD+/Annexin V+), Jurkat, 24 Hrs.; Soluble TRAIL [1]: 22.5%
Late Stage Apoptotic (7-AAD+/Annexin V+), Jurkat, 48 Hrs.; Soluble TRAIL [1]: 56.9%
Live Cells (7-AAD-/Annexin V-), Jeko-1, 24 Hrs.; Soluble TRAIL [1]: 37.8%
Live Cells (7-AAD-/Annexin V-), Jeko-1, 48 Hrs.; Soluble TRAIL [1]: 30.2%
Live Cells (7-AAD-/Annexin V-), Jurkat, 24 Hrs.; Soluble TRAIL [1]: 26.3%
Live Cells (7-AAD-/Annexin V-), Jurkat, 48 Hrs.; Soluble TRAIL [1]: 21.3%
Necrotic (7-AAD+/Annexin V-), Jeko-1, 24 Hrs.; Soluble TRAIL [1]: 0.076%
Necrotic (7-AAD+/Annexin V-), Jeko-1, 48 Hrs.; Soluble TRAIL [1]: 0.16%
Necrotic (7-AAD+/Annexin V-), Jurkat, 24 Hrs.; Soluble TRAIL [1]: 0.11%
Necrotic (7-AAD+/Annexin V-), Jurkat, 48 Hrs.; Soluble TRAIL [1]: 1.42%
percentage of apoptotic cells (Annexin V-positive), Jeko-1, 24 h; soluble TRAIL protein [1]: 60.7%
percentage of apoptotic cells, Jeko-1, 48 hours; soluble TRAIL protein [1]: 69.8%
percentage of apoptotic cells, Jurkat, 24 h; soluble TRAIL protein [1]: 72.9%
percentage of apoptotic cells, Jurkat, 48 h; soluble TRAIL protein [1]: 73%

PE-anti-streptavidin antibody (BioLegend, clone: 3A20.2)
# of STV molecules/bead (molecules/bead) (streptavidin [2]): 20100
# of STV molecules/bead (molecules/bead) (streptavidin [3]): 120000
# of STV molecules/bead (molecules/bead) (streptavidin [4]): 20100
